Data on 2 proteins can be found in publication PMC5879678 (Proceedings of the National Academy of Sciences of the …, 2018).

Series [1] deals with the molecule itself. Kind of series: Thioflavin T fluorescence.
Series [2] concerns the molecule itself. Nature of the series: AUC.

B1: TasA239 (TasA core domain, amino acids 28-239) (domain or fragment, Bacillus subtilis, UniProt P54507 28-239, looked up)
chain: AFNDIKSKDATFASGTLDLSAKENSASVNLSNLKPGDKLTKDFQFENNGSLAIKEVLMALNYGDFKANGGSNTSPEDFLSQFEVTLLTVGKEGGNGYPKNIILDDANLKDLYLMSAKNDAAAAEKIKKQIDPKFLNASGKVNVATIDGKTAPEYDGVPKTPTDFDQVQMEIQFKDDKTKDEKGLMVQNKYQGNSIKLQFSFEATQWNGLTIK
modifications: 2H,15N,13C isotope labelling in the NMR samples
Consider B1, for which, in series [1], the binding result was “binds”.

B2: TasA261 (mature secreted TasA, amino acids 28-261) (natural protein, Bacillus subtilis, UniProt P54507 28-261, looked up)
chain: AFNDIKSKDATFASGTLDLSAKENSASVNLSNLKPGDKLTKDFQFENNGSLAIKEVLMALNYGDFKANGGSNTSPEDFLSQFEVTLLTVGKEGGNGYPKNIILDDANLKDLYLMSAKNDAAAAEKIKKQIDPKFLNASGKVNVATIDGKTAPEYDGVPKTPTDFDQVQMEIQFKDDKTKDEKGLMVQNKYQGNSIKLQFSFEATQWNGLTIKKDHTDKDGYVKENEKAHSEDKN
modifications: 2H,13C,15N isotope labelling in the NMR samples
On to B2, for which the stoichiometry N (as a rule, a count of units in the complex or per binding partner) in series [2] stood at 12.
